Source: patent US20260226503A1 (NORTH CAROLINA STATE UNIVERSITY, published 2026)
Where no end group is shown, it is not given here. Toyopearl AF‑Amino‑650M resin = chromatographic resin to which the peptide C-terminus is conjugated

Key:
[1] = target: T1, AAV2 capsid (adeno-associated virus serotype 2, UniProt P03135 1-735; P03135 1-598; P03135 1-533); assay: bind-and-elute chromatography, pure AAV2, non-competitive mode, pH 7.0; AAV titer by ELISA
T1 construct: Whole assembled capsid, VP1:VP2:VP3 about 1:1:10; AF594-labelled in the library screen; GFP transgene in the lysate runs; a spherical cap of collated PDB structures in the docking; also called adeno-associated virus serotype 2

[2] = target: T1, AAV2 capsid; assay: bind-and-elute chromatography, pure AAV2; bound at pH 7.0, eluted with 1 M MgCl2 pH 6.0; ELISA
[3] = target: AAV9 capsid (adeno-associated virus serotype 9); assay: bind-and-elute chromatography, pure AAV9; bound at pH 7.0, eluted with 1 M MgCl2 pH 6.0; ELISA
[4] = target: T1, AAV2 capsid; assay: dynamic binding capacity at 10% breakthrough; AAV2 in HEK293 lysate, 3.2e11 vp/mL, PBS pH 7.4, residence time 3 min

B1: FWWAAFFKG-Toyopearl resin (peptide)
peptide: FWWAAFFKG-{Toyopearl AF‑Amino‑650M resin}
notes: Peptide immobilised on chromatographic resin; also called W5
Question: With B1 as the binder, how does the “loss (AAV titer in flow-through and wash vs. load)” value [1] read?
Answer: The value was < 1.7%.

Question: And the “yield (AAV titer in elution fraction vs. load)” value [2]?
Answer: The value was 44.8%.

Question: What about the “yield (AAV titer in elution fraction vs. load)” value [3] of the same binder?
Answer: The value was 53.7%.

B2: IWWHIAKFG-Toyopearl resin (peptide)
peptide: IWWHIAKFG-{Toyopearl AF‑Amino‑650M resin}
notes: Peptide immobilised on chromatographic resin; also called W3
Question: B2 was tested. Which “loss (AAV titer in flow-through and wash vs. load)” value [1] did it give?
Answer: The value was < 1.7%.

Question: What about the “yield (AAV titer in elution fraction vs. load)” value [2] of the same binder?
Answer: Its value is 54.9%.

Question: And the “yield (AAV titer in elution fraction vs. load)” value [3]?
Answer: Its value is 61.7%.

Question: What about the “DBC10% (vp AAV per mL of resin)” value [4] of the same binder?
Answer: The value was 9.53e+12 vp AAV per mL of resin.

B3: WKAHNKG-Toyopearl resin (peptide)
peptide: WKAHNKG-{Toyopearl AF‑Amino‑650M resin}
notes: Peptide immobilised on chromatographic resin; also called W2
Question: For B3, which “loss (AAV titer in flow-through and wash vs. load)” value [1] is on record?
Answer: Its value is < 1.7%.

Question: And the “yield (AAV titer in elution fraction vs. load)” value [2]?
Answer: Its value is 79.8%.

B4: IAFKKISIG-Toyopearl resin (peptide)
peptide: IAFKKISIG-{Toyopearl AF‑Amino‑650M resin}
notes: Peptide immobilised on chromatographic resin; also called W6
Question: With B4 as the binder, how does the “loss (AAV titer in flow-through and wash vs. load)” value [1] read?
Answer: Its value is < 1.7%.

B5: KWWIWAG-Toyopearl resin (peptide)
peptide: KWWIWAG-{Toyopearl AF‑Amino‑650M resin}
notes: Peptide immobilised on chromatographic resin; also called W8
Question: For B5, which “loss (AAV titer in flow-through and wash vs. load)” value [1] is on record?
Answer: The value was < 1.7%.

Question: What about the “yield (AAV titer in elution fraction vs. load)” value [3] of the same binder?
Answer: Its value is 57.2%.

B6: FWNWHHFKG-Toyopearl resin (peptide)
peptide: FWNWHHFKG-{Toyopearl AF‑Amino‑650M resin}
notes: Peptide immobilised on chromatographic resin; also called W4
Question: What does the source list for B6?
Answer: loss (AAV titer in flow-through and wash vs. load) [1]: < 1.7%; yield (AAV titer in elution fraction vs. load) [3]: 43.9%; DBC10% (vp AAV per mL of resin) [4]: 8.75e+12 vp AAV per mL of resin

B7: KFNHWFG-Toyopearl resin (peptide)
peptide: KFNHWFG-{Toyopearl AF‑Amino‑650M resin}
notes: Peptide immobilised on chromatographic resin; also called W1; KFNHWF-Toyopearl
Question: Which results are given for B7?
Answer: loss (AAV titer in flow-through and wash vs. load) [1]: < 1.7%; yield (AAV titer in elution fraction vs. load) [2]: 45%; DBC10% (vp AAV per mL of resin) [4]: 1.33e+13 vp AAV per mL of resin

B8: WWIKISG-Toyopearl resin (peptide)
peptide: WWIKISG-{Toyopearl AF‑Amino‑650M resin}
notes: Peptide immobilised on chromatographic resin; also called W9
Question: B8 was tested. Which “loss (AAV titer in flow-through and wash vs. load)” value [1] did it give?
Answer: The value was < 1.7%.

B9: IKIFFFFSG-Toyopearl resin (peptide)
peptide: IKIFFFFSG-{Toyopearl AF‑Amino‑650M resin}
notes: Peptide immobilised on chromatographic resin; also called W7
Question: How did the “loss (AAV titer in flow-through and wash vs. load)” value [1] turn out when B9 was run?
Answer: Its value is < 1.7%.

Question: And the “DBC10% (vp AAV per mL of resin)” value [4]?
Answer: The value was 1.02e+13 vp AAV per mL of resin.

B10: FFNFFKG-Toyopearl resin (peptide)
peptide: FFNFFKG-{Toyopearl AF‑Amino‑650M resin}
notes: Peptide immobilised on chromatographic resin; also called W10; FFNFFK-Toyopearl
Question: Which results are given for B10?
Answer: loss (AAV titer in flow-through and wash vs. load) [1]: < 1.7%; yield (AAV titer in elution fraction vs. load) [3]: 72.4%; DBC10% (vp AAV per mL of resin) [4]: 1.4e+13 vp AAV per mL of resin

B11: FNHFFIG-Toyopearl resin (peptide)
peptide: FNHFFIG-{Toyopearl AF‑Amino‑650M resin}
notes: Peptide immobilised on chromatographic resin; also called W11
Question: Which “loss (AAV titer in flow-through and wash vs. load)” value [1] does the source give for B11 here?
Answer: The value was < 1.7%.
